# Measured values reported in publication PMC8362221.
# Molecular target: Idelvion (commercial albumin-fused factor IX) (human) (UniProt P02768)
# Assay: SPR
substance,measurement,value
"soluble monomeric human neonatal Fc receptor, His-tagged (hFcRn‐His) (from UniProt P55899;P61769)",Kd,150 nM
